US20080292639A1

Molecular target: native amyloid plaques in unfixed brain sections of Tg2576 APP transgenic mice (human) (UniProt P05067)
Experiment: cell-based or functional assay

native amyloid plaques in unfixed brain sections of Tg2576 APP transgenic mice (human), sequence (P05067 672-713 limits assumed): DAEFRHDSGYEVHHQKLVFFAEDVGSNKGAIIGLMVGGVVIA

Row | EC50 of antibody induced phagocytosis of amyloid | Substance
1 | 0.8 µg/mL | mAb 4G8 (commercially available anti-Aβ antibody)
2 | 5 µg/mL | mAb 6E10 (antibody)
